The record followed here is PMC9298051, “A phytobacterial TIR domain effector manipulates NAD^+ to promote virulence” (The New Phytologist, 2021).

Data set [1] relates to NC(=O)c1ccc[n+]([C@@H]2O[C@H](COP(=O)(O)OP(=O)(O)OC[C@H]3O[C@@H](n4cnc5c(N)ncnc54)[C@H](O)[C@@H]3O)[C@@H](O)[C@H]2O)c1. In words: purified protein. Particulars: room temperature, 60 min, 1–600 μM NAD+.
The target in a further data set is T1, AbTIR (Acinetobacter baumannii, UniProt A0A009IHW8).
T1 construct: gene J512_3302; His-tagged recombinant AbTIR-His
The experiment in a line: HPLC of reaction products. Format: biochemical. The following applies: product v-cADPR.

T1 sequence (A0A009IHW8 whole entry): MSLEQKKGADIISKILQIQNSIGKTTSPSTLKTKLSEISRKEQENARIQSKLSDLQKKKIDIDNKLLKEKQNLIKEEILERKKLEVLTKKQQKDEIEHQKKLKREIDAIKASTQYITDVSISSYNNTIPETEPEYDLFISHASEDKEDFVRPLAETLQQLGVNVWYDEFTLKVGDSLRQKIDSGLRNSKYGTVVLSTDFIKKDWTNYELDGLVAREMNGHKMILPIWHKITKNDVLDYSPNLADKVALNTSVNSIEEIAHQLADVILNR

For the compound “HopAM1 (Pseudomonas syringae pv. tomato str. DC3000)”, in data set [1], the Km (in general, the concentration of substrate that gives half-maximal velocity) was found to be 174.8 µM and the kcat (as a rule, the maximal rate divided by the concentration of active sites) stood at 0.00933 s⁻¹.

For the compound `NC(=O)c1ccc[n+]([C@@H]2O[C@H](COP(=O)(O)OP(=O)(O)OC[C@H]3O[C@@H](n4cnc5c(N)ncnc54)[C@H](O)[C@@H]3O)[C@@H](O)[C@H]2O)c1` [NAD^+], the “HPLC of reaction products” value at AbTIR is “NAD^+ hydrolase reactions were conducted with purified HopAM1 and AbTIR”.
